Values quoted from earlier work, collected in patent US10373702B2, “Water-soluble trans-membrane proteins and methods for the preparation and use thereof” (Massachusetts Institute of Technology, priority 2014, dated 2019).

Target: SDF1a (Homo sapiens, UniProt P48061)
Conditions: native membrane-bound receptor with SDF1a

Chain of SDF1a (P48061 22-89 limits assumed, species assumed): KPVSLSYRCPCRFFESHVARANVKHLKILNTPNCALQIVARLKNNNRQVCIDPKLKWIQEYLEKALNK
Chain of SDF1a (P61073 whole entry partner, species assumed): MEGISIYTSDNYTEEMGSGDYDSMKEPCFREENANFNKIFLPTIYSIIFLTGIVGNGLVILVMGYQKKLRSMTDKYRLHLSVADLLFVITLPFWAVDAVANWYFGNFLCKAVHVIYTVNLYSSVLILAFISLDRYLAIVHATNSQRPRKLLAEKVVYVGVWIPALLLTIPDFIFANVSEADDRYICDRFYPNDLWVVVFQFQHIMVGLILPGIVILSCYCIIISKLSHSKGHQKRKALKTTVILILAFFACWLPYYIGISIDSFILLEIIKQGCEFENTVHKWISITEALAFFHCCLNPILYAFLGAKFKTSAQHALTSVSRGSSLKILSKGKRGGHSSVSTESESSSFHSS

B1: CXCR4: native CXC chemokine receptor type 4 isoform a, 356 amino acids (protein)
chain: MSIPLPLLQIYTSDNYTEEMGSGDYDSMKEPCFREENANFNKIFLPTIYSIIFLTGIVGNGLVILVMGYQKKLRSMTDKYRLHLSVADLLFVITLPFWAVDAVANWYFGNFLCKAVHVIYTVNLYSSVLILAFISLDRYLAIVHATNSQRPRKLLAEKVVYVGVWIPALLLTIPDFIFANVSEADDRYICDRFYPNDLWVVVFQFQHIMVGLILPGIVILSCYCIIISKLSHSKGHQKRKALKTTVILILAFFACWLPYYIGISIDSFILLEIIKQGCEFENTVHKWISITEALAFFHCCLNPILYAFLGAKFKTSAQHALTSVSRGSSLKILSKGKRGGHSSVSTESESSSFHSS
- Kd: ~0.1 µM
